These results are taken from patent publication US20140072613A1, “Compositions and Methods for Treating Cutaneous Scarring” (priority 2012, published 2014).

Targets include PKCι(h) (human) (UniProt P41743); Pim-2(h) (human) (UniProt Q9P1W9); Lyn(h) (human) (UniProt P07948); KDR(h) (human) (UniProt P35968); Syk(h) (human) (UniProt P43405); LOK(h) (human) (UniProt O94804); Abl(H8396P)(h) (human) (UniProt P00519); Fyn(h) (human) (UniProt P06241); JNK2α2(h) (human) (UniProt P45984); EGFR(T790M)(h) (human) (UniProt P00533); Flt4(h) (human) (UniProt P35916).

What all share (test): cell-based or functional assay
Another assay deals with T1, BrSK2(h) (human) (UniProt Q8IWQ3).
T1 sequence (looked up): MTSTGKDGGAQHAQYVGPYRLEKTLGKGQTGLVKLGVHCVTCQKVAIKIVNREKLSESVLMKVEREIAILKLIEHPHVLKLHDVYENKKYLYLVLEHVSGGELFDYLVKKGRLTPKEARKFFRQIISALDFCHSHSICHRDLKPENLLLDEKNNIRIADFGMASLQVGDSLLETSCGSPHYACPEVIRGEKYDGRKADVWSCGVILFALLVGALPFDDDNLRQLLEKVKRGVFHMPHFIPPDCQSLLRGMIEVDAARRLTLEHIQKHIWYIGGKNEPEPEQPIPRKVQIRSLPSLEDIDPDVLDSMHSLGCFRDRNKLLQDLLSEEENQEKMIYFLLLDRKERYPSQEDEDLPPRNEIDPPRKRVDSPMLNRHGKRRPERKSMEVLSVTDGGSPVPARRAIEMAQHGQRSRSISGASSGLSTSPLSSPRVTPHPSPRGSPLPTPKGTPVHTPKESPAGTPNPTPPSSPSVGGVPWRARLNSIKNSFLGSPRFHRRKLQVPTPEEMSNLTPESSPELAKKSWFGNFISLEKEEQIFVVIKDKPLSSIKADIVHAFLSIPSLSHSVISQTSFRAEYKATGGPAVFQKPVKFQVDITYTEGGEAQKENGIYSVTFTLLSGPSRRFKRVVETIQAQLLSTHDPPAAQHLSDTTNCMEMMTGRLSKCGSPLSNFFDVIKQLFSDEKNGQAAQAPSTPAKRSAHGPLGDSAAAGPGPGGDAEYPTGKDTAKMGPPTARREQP

A further assay concerns the target T2, Txk(h) (human) (UniProt P42681).
T2 sequence (looked up): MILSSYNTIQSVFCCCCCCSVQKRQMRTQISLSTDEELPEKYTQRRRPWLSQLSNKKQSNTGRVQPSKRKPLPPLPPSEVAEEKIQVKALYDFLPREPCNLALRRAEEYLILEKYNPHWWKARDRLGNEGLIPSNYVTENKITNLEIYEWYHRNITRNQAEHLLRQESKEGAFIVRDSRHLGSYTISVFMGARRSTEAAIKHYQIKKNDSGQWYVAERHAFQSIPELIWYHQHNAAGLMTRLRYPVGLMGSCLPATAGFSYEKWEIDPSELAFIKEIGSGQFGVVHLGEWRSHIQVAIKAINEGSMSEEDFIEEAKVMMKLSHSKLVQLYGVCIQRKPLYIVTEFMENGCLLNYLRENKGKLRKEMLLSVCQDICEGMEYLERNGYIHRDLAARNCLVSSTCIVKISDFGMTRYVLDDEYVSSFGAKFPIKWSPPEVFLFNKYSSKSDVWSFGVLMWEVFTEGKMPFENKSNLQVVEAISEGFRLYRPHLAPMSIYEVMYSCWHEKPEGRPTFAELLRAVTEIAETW

Another assay has as its target T3, PrKX(h) (human) (UniProt P51817).
T3 sequence (looked up): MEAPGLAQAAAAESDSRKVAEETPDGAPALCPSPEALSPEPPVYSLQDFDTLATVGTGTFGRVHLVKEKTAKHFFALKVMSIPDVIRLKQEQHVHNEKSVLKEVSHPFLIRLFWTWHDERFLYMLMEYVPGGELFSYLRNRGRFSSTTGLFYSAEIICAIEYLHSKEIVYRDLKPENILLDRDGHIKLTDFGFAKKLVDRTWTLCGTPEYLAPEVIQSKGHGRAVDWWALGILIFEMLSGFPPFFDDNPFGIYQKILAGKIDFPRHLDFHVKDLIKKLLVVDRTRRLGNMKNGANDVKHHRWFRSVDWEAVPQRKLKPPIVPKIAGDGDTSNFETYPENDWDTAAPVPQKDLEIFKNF

In the next assay the target is T4, GCK(h) (human) (UniProt Q12851).
T4 sequence (looked up): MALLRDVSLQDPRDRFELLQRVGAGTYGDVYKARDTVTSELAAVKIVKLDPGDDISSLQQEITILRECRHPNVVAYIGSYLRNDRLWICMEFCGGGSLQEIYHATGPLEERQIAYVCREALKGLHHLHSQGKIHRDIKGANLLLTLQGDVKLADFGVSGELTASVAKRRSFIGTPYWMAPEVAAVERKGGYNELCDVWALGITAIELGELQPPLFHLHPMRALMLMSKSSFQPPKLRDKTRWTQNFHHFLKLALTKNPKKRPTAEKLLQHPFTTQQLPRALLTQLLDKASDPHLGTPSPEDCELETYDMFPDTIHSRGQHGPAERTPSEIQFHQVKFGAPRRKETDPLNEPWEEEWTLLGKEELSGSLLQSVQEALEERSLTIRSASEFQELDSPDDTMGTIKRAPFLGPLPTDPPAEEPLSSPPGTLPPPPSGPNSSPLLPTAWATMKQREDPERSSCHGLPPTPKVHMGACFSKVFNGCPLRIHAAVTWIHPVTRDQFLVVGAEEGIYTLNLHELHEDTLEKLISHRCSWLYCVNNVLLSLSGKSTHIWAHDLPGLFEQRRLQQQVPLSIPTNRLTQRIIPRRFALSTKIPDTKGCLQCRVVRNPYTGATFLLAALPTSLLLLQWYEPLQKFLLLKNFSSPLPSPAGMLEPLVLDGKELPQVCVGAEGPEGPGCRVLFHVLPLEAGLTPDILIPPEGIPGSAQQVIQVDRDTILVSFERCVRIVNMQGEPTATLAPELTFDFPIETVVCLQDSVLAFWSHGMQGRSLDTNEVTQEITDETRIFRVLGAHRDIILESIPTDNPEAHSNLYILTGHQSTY

Chain of Pim-2(h) (human) (Q9P1W9 whole entry): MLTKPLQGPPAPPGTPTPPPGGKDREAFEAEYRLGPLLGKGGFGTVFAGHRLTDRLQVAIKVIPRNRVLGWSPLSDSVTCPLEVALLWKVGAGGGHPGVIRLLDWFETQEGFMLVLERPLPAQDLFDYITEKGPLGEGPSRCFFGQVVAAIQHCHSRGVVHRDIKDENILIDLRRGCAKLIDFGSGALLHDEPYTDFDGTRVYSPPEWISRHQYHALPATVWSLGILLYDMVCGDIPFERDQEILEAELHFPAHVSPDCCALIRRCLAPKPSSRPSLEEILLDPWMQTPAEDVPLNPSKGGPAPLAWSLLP
Chain of Abl(H8396P)(h) (human) (P00519 27-1130, stated change not applied): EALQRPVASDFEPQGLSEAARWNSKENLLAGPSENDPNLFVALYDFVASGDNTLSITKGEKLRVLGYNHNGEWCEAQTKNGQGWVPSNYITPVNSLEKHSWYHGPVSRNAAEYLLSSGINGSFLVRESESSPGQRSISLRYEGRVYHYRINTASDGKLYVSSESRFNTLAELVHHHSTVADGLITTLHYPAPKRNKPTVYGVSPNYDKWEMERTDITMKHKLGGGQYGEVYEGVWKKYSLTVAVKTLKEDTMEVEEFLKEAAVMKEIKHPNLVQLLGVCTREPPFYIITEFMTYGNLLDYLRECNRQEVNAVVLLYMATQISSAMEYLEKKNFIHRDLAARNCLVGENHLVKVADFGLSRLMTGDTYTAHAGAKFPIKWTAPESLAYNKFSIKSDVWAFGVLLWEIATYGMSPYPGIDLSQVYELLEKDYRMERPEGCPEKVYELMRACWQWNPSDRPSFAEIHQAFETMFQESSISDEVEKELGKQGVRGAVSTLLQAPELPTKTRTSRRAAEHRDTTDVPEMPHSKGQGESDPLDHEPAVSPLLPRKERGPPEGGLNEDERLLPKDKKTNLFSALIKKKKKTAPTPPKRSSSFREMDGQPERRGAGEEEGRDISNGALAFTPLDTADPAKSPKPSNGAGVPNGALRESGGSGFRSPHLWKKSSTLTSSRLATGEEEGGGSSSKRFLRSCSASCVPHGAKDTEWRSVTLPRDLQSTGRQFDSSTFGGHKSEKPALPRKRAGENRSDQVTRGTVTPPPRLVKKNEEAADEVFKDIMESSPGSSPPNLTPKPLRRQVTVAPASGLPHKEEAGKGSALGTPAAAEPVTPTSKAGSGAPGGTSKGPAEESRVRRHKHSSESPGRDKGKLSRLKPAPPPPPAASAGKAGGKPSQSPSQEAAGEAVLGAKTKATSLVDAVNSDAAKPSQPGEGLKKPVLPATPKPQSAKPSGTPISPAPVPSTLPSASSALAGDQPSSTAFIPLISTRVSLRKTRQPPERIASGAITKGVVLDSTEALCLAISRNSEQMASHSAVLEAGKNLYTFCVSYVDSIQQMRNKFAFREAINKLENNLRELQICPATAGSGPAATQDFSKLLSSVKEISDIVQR
Chain of PKCι(h) (human) (P41743 whole entry): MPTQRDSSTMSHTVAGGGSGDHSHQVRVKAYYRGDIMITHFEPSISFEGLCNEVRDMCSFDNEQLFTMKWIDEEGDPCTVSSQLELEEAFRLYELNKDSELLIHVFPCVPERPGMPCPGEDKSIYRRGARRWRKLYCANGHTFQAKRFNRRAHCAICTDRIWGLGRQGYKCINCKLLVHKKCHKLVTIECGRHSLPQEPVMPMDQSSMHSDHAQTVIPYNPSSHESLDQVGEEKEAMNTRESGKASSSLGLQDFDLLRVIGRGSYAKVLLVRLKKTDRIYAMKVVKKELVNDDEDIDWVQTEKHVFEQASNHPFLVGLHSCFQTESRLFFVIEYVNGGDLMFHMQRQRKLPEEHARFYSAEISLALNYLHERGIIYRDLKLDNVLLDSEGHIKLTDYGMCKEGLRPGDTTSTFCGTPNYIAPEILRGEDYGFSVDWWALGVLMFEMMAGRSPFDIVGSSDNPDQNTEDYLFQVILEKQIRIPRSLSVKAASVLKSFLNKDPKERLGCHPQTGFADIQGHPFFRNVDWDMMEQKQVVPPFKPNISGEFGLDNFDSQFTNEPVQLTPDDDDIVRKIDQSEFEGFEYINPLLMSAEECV
Chain of Flt4(h) (human) (P35916 800-1363 limits assumed): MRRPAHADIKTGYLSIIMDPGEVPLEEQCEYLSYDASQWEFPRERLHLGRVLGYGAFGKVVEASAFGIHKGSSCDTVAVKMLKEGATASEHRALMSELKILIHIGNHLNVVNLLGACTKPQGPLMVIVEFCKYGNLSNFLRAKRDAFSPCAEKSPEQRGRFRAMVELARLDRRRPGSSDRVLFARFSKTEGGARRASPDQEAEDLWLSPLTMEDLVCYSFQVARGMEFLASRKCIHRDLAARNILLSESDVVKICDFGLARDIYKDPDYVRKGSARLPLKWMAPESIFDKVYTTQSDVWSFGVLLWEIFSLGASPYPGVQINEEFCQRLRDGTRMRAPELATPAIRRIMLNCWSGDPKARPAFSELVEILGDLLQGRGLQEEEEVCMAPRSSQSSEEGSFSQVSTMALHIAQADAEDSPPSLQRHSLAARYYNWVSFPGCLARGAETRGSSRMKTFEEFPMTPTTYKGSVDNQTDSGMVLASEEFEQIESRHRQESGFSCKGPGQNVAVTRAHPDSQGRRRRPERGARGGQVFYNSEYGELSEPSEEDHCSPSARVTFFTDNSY
Chain of KDR(h) (human) (P35968 790-1356 limits assumed): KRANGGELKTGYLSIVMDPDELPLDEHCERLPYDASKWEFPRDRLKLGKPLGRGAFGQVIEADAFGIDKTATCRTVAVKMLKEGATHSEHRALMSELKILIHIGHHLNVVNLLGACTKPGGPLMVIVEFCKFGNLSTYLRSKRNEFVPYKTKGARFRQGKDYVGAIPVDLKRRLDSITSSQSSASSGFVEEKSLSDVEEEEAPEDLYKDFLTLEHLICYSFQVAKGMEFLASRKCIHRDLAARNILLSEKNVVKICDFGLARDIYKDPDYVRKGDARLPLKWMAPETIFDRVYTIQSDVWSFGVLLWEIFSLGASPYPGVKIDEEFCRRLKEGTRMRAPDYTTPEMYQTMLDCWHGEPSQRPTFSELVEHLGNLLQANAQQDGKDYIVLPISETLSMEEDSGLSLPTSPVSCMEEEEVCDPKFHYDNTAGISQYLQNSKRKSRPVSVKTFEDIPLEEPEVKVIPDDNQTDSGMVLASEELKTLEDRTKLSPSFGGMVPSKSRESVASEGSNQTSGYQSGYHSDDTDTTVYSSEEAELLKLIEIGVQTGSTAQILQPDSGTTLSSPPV
Chain of Lyn(h) (human) (P07948 whole entry): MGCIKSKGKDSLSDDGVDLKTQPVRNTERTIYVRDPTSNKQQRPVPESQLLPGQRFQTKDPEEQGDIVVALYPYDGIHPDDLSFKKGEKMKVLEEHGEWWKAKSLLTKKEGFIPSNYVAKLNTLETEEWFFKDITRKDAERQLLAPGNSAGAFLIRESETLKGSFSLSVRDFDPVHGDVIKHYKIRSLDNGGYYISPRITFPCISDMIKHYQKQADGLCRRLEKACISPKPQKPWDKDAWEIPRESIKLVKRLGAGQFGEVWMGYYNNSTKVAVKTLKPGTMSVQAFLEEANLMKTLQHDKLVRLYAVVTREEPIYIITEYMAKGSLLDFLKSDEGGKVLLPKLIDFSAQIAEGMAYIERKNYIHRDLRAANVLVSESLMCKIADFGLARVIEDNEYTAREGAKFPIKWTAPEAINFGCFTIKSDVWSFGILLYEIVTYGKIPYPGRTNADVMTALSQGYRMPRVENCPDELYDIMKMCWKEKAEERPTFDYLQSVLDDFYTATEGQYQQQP
Chain of LOK(h) (human) (O94804 1-348 limits assumed): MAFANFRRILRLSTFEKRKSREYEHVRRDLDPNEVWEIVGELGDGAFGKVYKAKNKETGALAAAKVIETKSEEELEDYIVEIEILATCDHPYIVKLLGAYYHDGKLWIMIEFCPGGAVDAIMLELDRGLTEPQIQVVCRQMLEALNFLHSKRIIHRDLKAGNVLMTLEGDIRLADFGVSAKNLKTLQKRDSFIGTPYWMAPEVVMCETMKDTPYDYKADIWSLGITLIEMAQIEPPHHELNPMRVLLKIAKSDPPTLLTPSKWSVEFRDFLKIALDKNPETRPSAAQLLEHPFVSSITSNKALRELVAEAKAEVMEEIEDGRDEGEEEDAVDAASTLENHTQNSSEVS
Chain of Fyn(h) (human) (P06241 whole entry): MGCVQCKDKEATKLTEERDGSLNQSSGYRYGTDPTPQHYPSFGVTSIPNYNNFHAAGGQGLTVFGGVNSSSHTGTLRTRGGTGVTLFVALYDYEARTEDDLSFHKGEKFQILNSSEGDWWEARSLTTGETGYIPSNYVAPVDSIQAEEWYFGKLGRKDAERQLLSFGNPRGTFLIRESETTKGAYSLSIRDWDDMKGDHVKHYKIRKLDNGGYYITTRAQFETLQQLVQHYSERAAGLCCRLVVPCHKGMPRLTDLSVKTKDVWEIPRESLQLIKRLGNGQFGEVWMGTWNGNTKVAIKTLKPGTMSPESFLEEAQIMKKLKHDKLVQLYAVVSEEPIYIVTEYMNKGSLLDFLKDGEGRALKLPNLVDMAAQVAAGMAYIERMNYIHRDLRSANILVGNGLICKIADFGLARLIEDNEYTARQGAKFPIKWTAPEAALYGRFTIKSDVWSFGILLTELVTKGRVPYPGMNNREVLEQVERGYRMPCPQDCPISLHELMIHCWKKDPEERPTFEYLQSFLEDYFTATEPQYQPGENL

Turning to MMI-0500 (peptide), the % activity, 100 µM with PKCι(h) (human) is 7%; with Pim-2(h) (human) it was 46%; with BrSK2(h) (human), 84%; in the assay with Lyn(h) (human), 31%; with KDR(h) (human) it was 15%; with Txk(h) (human) it was 10%. Moreover, the % activity, 100 µM stood at 5% with Syk(h) (human); 7% with LOK(h) (human); 57% with PrKX(h) (human); 51% in the assay with Abl(H8396P)(h) (human); 30% with GCK(h) (human); 83% with Fyn(h) (human). Also, the % activity, 100 µM in the assay with JNK2α2(h) (human) turned out to be 81%; with EGFR(T790M)(h) (human) it was 70%; with Flt4(h) (human), 73%.
